Literature values in PMC4899099.

Biological target: Carboxypeptidase E (UniProt P04836)
Chain of UniProt P04836 (P04836 42-475): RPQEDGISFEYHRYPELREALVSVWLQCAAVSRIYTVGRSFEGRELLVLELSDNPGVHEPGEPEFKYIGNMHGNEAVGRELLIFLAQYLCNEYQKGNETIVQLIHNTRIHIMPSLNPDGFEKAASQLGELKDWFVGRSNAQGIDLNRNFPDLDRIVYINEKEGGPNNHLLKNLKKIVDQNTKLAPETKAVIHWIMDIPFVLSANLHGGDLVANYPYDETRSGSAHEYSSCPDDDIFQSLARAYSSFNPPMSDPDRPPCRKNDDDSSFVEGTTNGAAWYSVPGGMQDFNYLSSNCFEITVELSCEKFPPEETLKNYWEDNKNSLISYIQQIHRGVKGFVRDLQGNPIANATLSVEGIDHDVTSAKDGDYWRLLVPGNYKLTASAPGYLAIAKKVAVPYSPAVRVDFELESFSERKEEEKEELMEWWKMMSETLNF

N-POMC(1-26) 1-26 (from UniProt P01190)
Kd: 6 µM
